Assay [1] has as its target STM3605f, full-length Se-labeled non-methylated variant (Salmonella enterica serovar Typhimurium LT2). Briefly: crystal structure.
The target in assay [2] is STM3605t (STM3605 residues 5-107, SeMet-labeled and reductively methylated) (Salmonella enterica serovar Typhimurium LT2). The assay is described as follows: crystal structure.

Broadly, the stoichiometry N is a count of units in the complex or per binding partner.

In assay [1], “STM3605f, full-length Se-labeled non-methylated variant (natural protein)” registered a stoichiometry N of 2.

“STM3605t (STM3605 residues 5-107, SeMet-labeled and reductively methylated) (domain or fragment)” yielded a stoichiometry N in assay [2] of 2.

The values above are taken from paper PMC3699403.
